Measured values from patent publication US7303752B2, “Hookworm vaccine” (The George Washington University, priority 2001, dated 2007).
Several values for one entry are separate records, joined by “and”; a condition that tells them apart may be missing. Identical values can stand only once.

Tests used:
recombinant Ac-CP-2 = experiment: Proteolytic activity of recombinant Ac-CP-2 against Z-Phe-Arg-AMC; format: biochemical, Ancylostoma caninum
Method: Purified, recombinant Ac-CP-2 was assessed for proteolytic activity using the fluorogenic peptidyl substrate Z-Phe-Arg-aminomethyl coumarin (AMC) (Bachem). The pH optimum of Ac-CP-2 was assessed using Z-Phe-Arg-AMC at different pH values according to published protocols. The cysteine protease inhibitor E64 was included in some assays at a final concentration of 5 μM. Recombinant Ac-CP-2 was treated with PNGase F and O-glycosidase, according to the manufacturer's instructions (Enzymatic CarboRelease kit, QA-Bio), under denaturing conditions to remove any N-linked and O-linked oligosaccharides.
Canine IgG was purified from sera of vaccinated dogs using protein A-agarose (Amersham Biosciences) as previously described. Purified IgG (10-500 ng) was incubated with 1.0 μg of recombinant Ac-CP-2 for 45 mins prior to assessing proteolytic activity as described above.

anti-ASP-2 antibodies = experiment: ELISA of canine IgG1, IgG2, IgE after Ac-ASP-2/AS03 vaccination (Example 12); format: in vivo, dog
Method: This study was conducted and reported in compliance with the intent of the Good Laboratory Practice Regulations (F.R. Vol. 43, No. 247, pp. 60013-60025, Dec. 22, 1978 and subsequent amendments). The study was audited by Quality Assurance while in progress to assure compliance with GLP regulations, adherence to the protocol and standard operating procedures. The data and final report were audited by Quality Assurance to assure that the report accurately described study conduct and results. The vaccine trial was designed to test Ac-ASP-2 formulated with Adjuvant System 03 (AS03) 44 obtained from GlaxoSmithKline. The rationale for selecting AS03 as an adjuvants is discussed elsewhere 37. The ten purpose bred beagles were randomized into two arms: immunized with Ac-ASP-2 (SEQ ID NO: 20) or adjuvant only (control). To make six doses of Ac-ASP-2 (SEQ ID NO: 20) formulated with AS03, 600 μg of recombinant protein (0.3 ml of Ac-ASP-2 (SEQ ID NO: 20) at a concentration of 2 mg.ml^−1) was mixed with 1.2 ml of 20 mM Tris-HCl, 0.5 M NaCl, pH 7.9 and 1.5 ml of AS03; the contents of the tube were vortex mixed for 30 seconds then shaken at low speed for 10 minutes. […]
Beagles were immunized with formulated Ac-ASP-2 (SEQ ID NO: 20) as previously described^37. […] Each animal's specific antibody response was evaluated by indirect ELISA using serum taken prior to the infective challenge^37. […]

[1] = system: antibody to recombinant proteins; experiment: Pre-challenge antibody titer ELISA, trial with Ac-ASP-2, Ac-API, Ac-MEP-1, Ac-APR-1 in AS03; format: in vivo, dog
Method: (§1) The vaccine trial was designed to test Ac-API, Ac-ASP-2, Ac-MEP-1, Ac-APR-1 formulated with Adjuvant System 03 (AS03) obtained from GlaxoSmithKline (GSK). The rationale for selecting AS03 as an adjuvants is discussed elsewhere (Stoute et al, 1997). The ten purpose bred beagles were randomized into five arms: immunized with the adjuvant-formulated recombinant proteins or adjuvant only (control). To make six doses of antigen formulated with AS03, […] of recombinant protein (0.3 ml of antigen at a concentration of 2 mg.ml^−1) was mixed with 1.2 ml of 20 mM Tris-HCl, 0.5 M NaCl, pH 7.9 and 1.5 ml of AS03; the contents of the tube were vortex mixed for 30 seconds then shaken at low speed for 10 minutes. Dogs were immunized with 100 g of formulated antigen in a final volume of 0.5 ml. ASO3 only control was prepared as described above, with PBS included instead of antigen. Formulation of GSK adjuvants were conducted according to the protocol provided by GSK. All injections were performed intramuscularly (IM). Test and control articles were prepared on the day of injection. All animals received 4 immunizations approximately 3 weeks apart.
Beagles were immunized with formulated Ac-ASP-2 as previously described (Loukas et al, 2004). The vaccines were administered IM three times beginning at age 62+/−4 days. Boosts were administered to the dogs at intervals of 21 days. Blood was drawn at least once every 21 days and serum was separated from cells by centrifugation. Each animal's specific antibody response was evaluated by indirect ELISA using serum taken prior to the infective challenge (Loukas et al, 2004). Recombinant Ac-ASP-2 was coated onto microtiter plates at a concentration of 5 g.ml^−1. Dog sera were titrated between 1:100 and 1:2×10^6 to determine endpoint titers. Anti-canine IgG1, IgG2 and IgE antibodies conjugated to horse-radish peroxidase (Bethyl Laboratories) were used at a dilution of 1:1,000.

A. caninum = experiment: Canine vaccine trial with Ac-ASP-2, Ac-API, Ac-MEP-1, Ac-APR-1 in AS03, footpad challenge with 500 A. caninum L3; format: in vivo, dog
Method: as §1, with “The ten purpose bred beagles were randomized into five arms: immunized with the adjuvant-formulated recombinant proteins or adjuvant only (control).” left out
A. caninum larvae were cultured from eggs collected in the feces of infected dogs. All hookworms in the infective challenge were approximately equal age (17±7 days post hatching). The species identity of the infective larvae were validated using PCR. All dogs were infected by the footpad method with the same dose of 500 L3 of A. caninum (Zhan et al, 2001). Larval challenge occurred on one of three consecutive days (at age 120+/−9 days). Fourteen-sixteen days after the final immunization, dogs were anesthetized using a combination of ketamine and xylazine (20 mg.kg^−1 and 10 mg.kg^−1 respectively), and 500 A. caninum L3 in a final volume of […] were applied to the footpad.

## CC(C)C[C@H](NC(=O)[C@H]1O[C@@H]1C(=O)O)C(=O)NCCCCN=C(N)N [E64]
Recombinant Ac-CP-2; 1.0 μg Ac-CP-2, Z-Phe-Arg-AMC, 50 ng pooled IgG or E64 5 μM, mean of triplicate
  % reduction in proteolytic activity: 100 ± 0%
Recombinant Ac-CP-2; final concentration of 5 μM
  cleavage of the peptide substrate, in words: completely ablated

B1: Ac-ASP-2: A. caninum secreted protein 2, SEQ ID NO: 20; recombinant from Sf9 insect cells, given with AS03 (protein, listed as Ancylostoma caninum)
chain: MLVLVPLLALLAVSVHGNSMRCGNNGMTDEARQKFLDVHNSYRSMVAKGQAKDAISGNAPKAAKMKKMIYDCNVESTAMQNAKKCVFAHSHRKGVGENIWMSTARQMDKAQAAQQASDGWFSELAKYGVGQENKLTTQLWNRGVMIGHYTQMVWQESYKLGCYVEWCSSMTYGVCQYSPQGNNMNSLTYEKGNPCTKDSDCGSNASCSAGEALCVVRG
anti-ASP-2 antibodies; immunized canines
  IgG1 and IgG2 antibody titers to recombinant Ac-ASP-2, in words: strong
anti-ASP-2 antibodies; test canines
  IgE titers to Ac-ASP-2, in words: one log lower than the IgG1 and IgG2 titers
[1]; geometric mean of group
  Pre-challenge antibody titer, IgE, GEOMEAN: 100
  Pre-challenge antibody titer, IgG1, GEOMEAN: 10,837
  Pre-challenge antibody titer, IgG2, GEOMEAN: 20,950
[1]; immunized canines
  IgG1 and IgG2 antibody titers to recombinant Ac-ASP-2, in words: strong
[1]; individual dogs
  Pre-challenge antibody titer, IgE: 100
  Pre-challenge antibody titer, IgG1: 13,500 (4×) and 4,500
  Pre-challenge antibody titer, IgG2: 40,500 (2×) and 13,500 (3×)
[1]; test canines
  IgE titers to Ac-ASP-2, in words: one log lower than the IgG1 and IgG2 titers
A. caninum; 5 dogs
  worm burdens, Maximum: 226.00
  worm burdens, Minimum: 89.00
A. caninum; 5 dogs, ASO3 control 203.8000
  worm burdens, Mean: 166.0000
A. caninum; 5 dogs, ASO3 control 215.0000
  worm burdens, Median: 174.0000
A. caninum; group average, AS03 control 5
  worm burden, Colon, Male, Average: 4
A. caninum; group average, AS03 control 9
  worm burden, Colon, Female, Average: 5
A. caninum; group average, AS03 control 95
  worm burden, Intestine, Female, Average: 81
A. caninum; group average, AS03 control 96
  worm burden, Intestine, Male, Average: 76
A. caninum; group average, AS03 control 204
  worm burden, Total, Average: 166
A. caninum; individual dogs
  worm burden, Colon, Female: 5 and 4 and 3 and 8 and 6
  worm burden, Colon, Male: 5 and 4 and 1 (2×) and 9
  worm burden, Intestine, Female: 87 and 101 and 115 and 72 and 28
  worm burden, Intestine, Male: 62 and 72 and 107 and 85 and 54
  worm burden, Total: 160 and 181 and 226 and 174 and 89
